According to PMC8750214:

Legend:
[1] = flow cytometry of surface 4-1BB, Jurkat; conditions: glycan lost; control: wild type
[2] = immunoblot of total 4-1BB, Jurkat; conditions: glycan lost; control: wild type

| Substance | localisation_or_trafficking [1] | expression_or_secretion [2] |
| --- | --- | --- |
| 4-1BB (CD137/TNFRSF9): N138Q | decreases | no change |
| 4-1BB (CD137/TNFRSF9): N149Q | no change |  |
